What was measured:
[1] = target: T1, traf1_human TRAF1 (UniProt Q13077)
T1 sequence: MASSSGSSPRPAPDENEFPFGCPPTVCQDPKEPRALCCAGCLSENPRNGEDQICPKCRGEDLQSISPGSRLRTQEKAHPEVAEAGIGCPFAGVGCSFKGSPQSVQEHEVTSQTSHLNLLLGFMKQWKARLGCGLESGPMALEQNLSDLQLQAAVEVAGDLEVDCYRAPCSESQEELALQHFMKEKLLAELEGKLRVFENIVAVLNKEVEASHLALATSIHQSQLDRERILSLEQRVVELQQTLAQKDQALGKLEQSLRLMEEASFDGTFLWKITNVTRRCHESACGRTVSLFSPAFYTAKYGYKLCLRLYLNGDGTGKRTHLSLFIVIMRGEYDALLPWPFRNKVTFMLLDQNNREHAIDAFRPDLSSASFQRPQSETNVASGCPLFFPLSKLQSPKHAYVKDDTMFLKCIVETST

[2] = target: itf2_human TCF4 (UniProt P15884)
Chain of itf2_human TCF4 (P15884 whole entry): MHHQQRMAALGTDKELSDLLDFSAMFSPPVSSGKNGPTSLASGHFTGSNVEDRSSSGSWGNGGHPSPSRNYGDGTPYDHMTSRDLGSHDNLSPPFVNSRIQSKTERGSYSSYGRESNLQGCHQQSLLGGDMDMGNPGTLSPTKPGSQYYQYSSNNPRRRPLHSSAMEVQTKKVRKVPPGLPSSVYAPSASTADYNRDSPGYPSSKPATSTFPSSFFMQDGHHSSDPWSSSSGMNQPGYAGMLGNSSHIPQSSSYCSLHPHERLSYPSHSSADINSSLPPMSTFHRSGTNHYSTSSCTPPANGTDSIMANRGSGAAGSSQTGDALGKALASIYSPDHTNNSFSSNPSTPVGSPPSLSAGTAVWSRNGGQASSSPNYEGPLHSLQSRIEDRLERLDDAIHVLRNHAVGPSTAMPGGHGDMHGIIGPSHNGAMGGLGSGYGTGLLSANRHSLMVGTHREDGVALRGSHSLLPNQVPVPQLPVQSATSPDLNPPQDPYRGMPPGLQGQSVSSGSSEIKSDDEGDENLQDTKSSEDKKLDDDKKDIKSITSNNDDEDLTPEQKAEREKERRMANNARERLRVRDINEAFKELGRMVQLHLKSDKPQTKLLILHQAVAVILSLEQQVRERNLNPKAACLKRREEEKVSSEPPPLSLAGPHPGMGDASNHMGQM

[3] = target: rpia_human RPIA (UniProt P49247)
Chain of rpia_human RPIA (P49247 whole entry): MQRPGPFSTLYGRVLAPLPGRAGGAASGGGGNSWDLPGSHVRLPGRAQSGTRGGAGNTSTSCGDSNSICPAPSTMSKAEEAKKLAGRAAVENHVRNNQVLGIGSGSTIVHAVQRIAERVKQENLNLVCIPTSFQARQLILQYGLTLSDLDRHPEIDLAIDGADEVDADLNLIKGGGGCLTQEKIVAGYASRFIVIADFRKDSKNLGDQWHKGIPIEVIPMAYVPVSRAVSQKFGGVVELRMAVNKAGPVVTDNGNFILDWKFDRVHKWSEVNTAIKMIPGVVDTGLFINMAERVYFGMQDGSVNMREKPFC

[4] = target: reep6_human REEP6 (UniProt Q96HR9)
Chain of reep6_human REEP6 (Q96HR9 whole entry): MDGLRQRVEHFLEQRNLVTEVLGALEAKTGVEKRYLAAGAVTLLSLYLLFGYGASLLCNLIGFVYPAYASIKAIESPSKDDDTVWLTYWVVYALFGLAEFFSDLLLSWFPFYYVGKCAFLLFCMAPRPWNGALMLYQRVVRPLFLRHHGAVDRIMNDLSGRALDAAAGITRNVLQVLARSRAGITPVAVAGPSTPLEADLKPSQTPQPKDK

[5] = target: T2, acy3_human ACY3 (UniProt Q96HD9)
T2 sequence: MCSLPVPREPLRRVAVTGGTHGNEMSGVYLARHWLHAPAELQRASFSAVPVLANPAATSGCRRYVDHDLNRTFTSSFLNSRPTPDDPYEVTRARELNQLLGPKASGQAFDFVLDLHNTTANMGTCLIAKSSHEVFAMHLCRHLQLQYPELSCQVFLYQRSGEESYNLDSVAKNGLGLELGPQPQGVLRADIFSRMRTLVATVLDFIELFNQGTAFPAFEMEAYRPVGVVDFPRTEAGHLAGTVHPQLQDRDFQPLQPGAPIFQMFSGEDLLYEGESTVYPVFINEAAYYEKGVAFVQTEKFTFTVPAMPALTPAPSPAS

[6] = target: T3, prdx3_human PRDX3 (UniProt P30048)
T3 sequence: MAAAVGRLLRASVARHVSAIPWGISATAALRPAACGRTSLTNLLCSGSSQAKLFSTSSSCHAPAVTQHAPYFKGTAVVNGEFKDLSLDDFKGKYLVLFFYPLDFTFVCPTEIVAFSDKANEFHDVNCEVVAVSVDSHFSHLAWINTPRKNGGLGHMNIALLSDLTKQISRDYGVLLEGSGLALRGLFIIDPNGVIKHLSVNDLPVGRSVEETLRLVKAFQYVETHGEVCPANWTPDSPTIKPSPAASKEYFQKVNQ

[7] = target: zmat1_human ZMAT1 (UniProt Q5H9K5)
Chain of zmat1_human ZMAT1 (Q5H9K5 whole entry): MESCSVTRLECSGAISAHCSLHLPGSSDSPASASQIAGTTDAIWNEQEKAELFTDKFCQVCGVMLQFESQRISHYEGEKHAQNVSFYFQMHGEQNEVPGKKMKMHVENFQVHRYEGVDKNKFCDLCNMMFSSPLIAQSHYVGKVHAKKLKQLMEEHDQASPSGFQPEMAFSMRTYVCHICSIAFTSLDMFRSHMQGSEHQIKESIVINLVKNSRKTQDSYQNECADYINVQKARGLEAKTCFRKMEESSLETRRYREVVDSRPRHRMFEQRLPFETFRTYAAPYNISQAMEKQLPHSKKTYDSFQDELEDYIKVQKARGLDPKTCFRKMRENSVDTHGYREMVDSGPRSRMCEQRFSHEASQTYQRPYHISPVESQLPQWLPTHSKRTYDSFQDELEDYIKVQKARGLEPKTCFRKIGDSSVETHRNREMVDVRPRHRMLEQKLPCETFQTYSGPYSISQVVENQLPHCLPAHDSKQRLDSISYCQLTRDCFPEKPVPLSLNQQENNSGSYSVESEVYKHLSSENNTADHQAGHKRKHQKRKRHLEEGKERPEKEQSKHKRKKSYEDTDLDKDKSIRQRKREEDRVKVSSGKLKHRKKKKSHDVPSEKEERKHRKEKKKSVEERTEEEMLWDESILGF

[8] = target: T4, zbt14_human ZBTB14 (UniProt O43829)
T4 sequence: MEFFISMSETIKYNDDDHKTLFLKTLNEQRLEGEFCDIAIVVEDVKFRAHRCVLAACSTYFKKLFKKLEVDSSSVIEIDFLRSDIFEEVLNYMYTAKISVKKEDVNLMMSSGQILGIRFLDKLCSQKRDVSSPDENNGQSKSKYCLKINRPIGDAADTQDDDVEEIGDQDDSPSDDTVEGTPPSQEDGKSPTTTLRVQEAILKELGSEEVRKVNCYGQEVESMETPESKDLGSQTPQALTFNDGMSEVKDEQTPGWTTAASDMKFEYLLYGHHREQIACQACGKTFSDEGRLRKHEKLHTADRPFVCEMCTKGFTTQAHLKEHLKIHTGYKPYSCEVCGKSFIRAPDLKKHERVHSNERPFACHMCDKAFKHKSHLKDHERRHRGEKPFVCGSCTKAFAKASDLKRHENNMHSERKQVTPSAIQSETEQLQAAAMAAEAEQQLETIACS

[9] = target: pde9a_human PDE9A (UniProt O76083)
Chain of pde9a_human PDE9A (O76083 whole entry): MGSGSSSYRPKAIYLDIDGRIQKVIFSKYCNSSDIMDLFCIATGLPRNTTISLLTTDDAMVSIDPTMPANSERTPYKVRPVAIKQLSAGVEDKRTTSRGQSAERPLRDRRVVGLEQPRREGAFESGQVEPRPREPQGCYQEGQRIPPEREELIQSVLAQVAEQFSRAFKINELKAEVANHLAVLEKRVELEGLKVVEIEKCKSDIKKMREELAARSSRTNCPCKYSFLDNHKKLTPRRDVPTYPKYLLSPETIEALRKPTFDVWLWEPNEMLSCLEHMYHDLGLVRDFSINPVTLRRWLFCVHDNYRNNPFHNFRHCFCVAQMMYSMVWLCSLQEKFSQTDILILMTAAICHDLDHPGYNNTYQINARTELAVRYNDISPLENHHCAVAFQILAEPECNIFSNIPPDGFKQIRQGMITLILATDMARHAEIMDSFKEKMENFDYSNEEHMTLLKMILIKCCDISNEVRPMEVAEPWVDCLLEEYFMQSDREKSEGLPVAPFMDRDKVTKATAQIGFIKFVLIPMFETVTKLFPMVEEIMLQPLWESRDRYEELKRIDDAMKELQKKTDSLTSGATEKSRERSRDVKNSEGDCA

[10] = target: T5, kctd9_human KCTD9 (UniProt Q7L273)
T5 sequence: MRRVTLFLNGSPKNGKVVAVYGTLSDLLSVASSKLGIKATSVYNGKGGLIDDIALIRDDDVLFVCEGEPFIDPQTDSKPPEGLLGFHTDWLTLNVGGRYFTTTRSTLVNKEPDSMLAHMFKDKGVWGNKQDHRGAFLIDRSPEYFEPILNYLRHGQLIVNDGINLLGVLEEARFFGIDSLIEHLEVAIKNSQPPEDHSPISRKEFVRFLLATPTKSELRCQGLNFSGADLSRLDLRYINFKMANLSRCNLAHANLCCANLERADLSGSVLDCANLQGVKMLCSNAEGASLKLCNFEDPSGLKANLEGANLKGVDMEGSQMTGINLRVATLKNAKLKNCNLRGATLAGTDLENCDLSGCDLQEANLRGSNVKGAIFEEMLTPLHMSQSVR

[11] = target: T6, phs_human PCBD1 (UniProt P61457)
T6 sequence: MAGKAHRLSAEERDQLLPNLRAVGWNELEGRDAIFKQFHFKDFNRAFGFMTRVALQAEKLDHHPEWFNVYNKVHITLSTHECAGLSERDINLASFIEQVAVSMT

[12] = target: T7, ei2ba_human EIF2B1 (UniProt Q14232)
T7 sequence: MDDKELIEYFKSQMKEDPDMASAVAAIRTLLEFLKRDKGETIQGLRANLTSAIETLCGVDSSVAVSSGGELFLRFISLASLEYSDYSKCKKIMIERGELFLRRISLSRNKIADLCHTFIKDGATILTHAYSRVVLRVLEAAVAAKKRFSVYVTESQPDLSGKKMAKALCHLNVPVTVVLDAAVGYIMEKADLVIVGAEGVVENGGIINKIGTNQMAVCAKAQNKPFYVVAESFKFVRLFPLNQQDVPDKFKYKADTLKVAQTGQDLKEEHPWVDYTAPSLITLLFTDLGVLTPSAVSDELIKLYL

[13] = target: pnma5_human PNMA5 (UniProt Q96PV4)
Chain of pnma5_human PNMA5 (Q96PV4 whole entry): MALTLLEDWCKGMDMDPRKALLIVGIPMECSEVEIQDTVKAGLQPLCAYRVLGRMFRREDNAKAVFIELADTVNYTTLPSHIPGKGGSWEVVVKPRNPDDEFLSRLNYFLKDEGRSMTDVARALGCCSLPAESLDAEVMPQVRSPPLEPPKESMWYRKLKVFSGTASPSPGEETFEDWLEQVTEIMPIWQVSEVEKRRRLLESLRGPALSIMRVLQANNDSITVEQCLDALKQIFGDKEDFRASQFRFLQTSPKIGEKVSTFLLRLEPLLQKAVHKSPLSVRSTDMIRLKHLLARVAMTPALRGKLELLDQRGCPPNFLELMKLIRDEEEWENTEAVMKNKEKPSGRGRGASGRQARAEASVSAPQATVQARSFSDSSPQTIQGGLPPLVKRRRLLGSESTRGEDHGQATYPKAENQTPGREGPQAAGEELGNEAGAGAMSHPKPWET

[14] = target: T8, prps1_human PRPS1 (UniProt P60891)
T8 sequence: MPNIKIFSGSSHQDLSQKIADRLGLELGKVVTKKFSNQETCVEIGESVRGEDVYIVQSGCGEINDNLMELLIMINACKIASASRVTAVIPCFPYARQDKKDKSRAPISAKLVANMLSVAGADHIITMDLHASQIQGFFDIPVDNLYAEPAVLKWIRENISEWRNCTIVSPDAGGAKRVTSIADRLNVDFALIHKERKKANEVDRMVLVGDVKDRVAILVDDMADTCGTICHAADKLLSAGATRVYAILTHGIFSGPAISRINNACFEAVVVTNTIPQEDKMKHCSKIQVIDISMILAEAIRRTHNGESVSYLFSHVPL

Measured: effect of a mutation on the interaction

Golgi reassembly-stacking protein 2 (Homo sapiens) (from UniProt Q9H8Y8) L320R
disrupting interaction strength: [5] | [6]
with no effect: all other assays above

From IntAct's records for PubMed 29892012
